The target of assay [1] is RadA K251A, purified without tag (S. pneumoniae). As to the kind of experiment: SEC; gel filtration of purified untagged RadA proteins on Superdex 200 increase 10/300 in 25 mM Tris pH 8, 200 mM NaCl, 20% glycerol; calibrated with 43, 158 and 440 kDa standards.
Assay [2] has as its target RadA K101A, purified without tag (S. pneumoniae). The assay is described as above.
For assay [3], the target named is P domain of pneumococcal RadA (RadAP) (S. pneumoniae). Put plainly: SEC-MALS; samples at 2 mg/ml injected on Superdex200 Increase coupled to MALS and refractive index detection, 0.4 ml/min, 298 K; hexamer independent of nucleotide and Mg2+.
The target of assay [4] is full-length pneumococcal RadA (RadAFL), preparation for structural analysis (S. pneumoniae). The assay is described as above.
The target in assay [5] is RadA R253A, purified without tag (S. pneumoniae). Put plainly: SEC; gel filtration of purified untagged RadA proteins on Superdex 200 increase 10/300 in 25 mM Tris pH 8, 200 mM NaCl, 20% glycerol; calibrated with 43, 158 and 440 kDa standards. A general note: In gel filtration, larger molecules generally elute earlier.
The subject of assay [6] is T1, RadA (RadAFL).
T1 construct: full length, 453 residues, hexamer; recombinant in E. coli; ATPase work with native untagged protein (pET21d); crystal with SeMet RadAFL (pET-radA or StrepII-tagged IBA13-radA), C4 domain (1-35) unresolved
Put plainly: coupled spectrophotometric ATPase assay (pyruvate kinase / lactate dehydrogenase, NADH at […] nm), Michaelis-Menten fit. Format: biochemical, Streptococcus pneumoniae. As to conditions: ATP 0-2 mM, 600 nM RadA, 2 uM nt phiX174 ssDNA, 4 mM Mg(OAc)2, pH 7.5, 37 C.

In the case of “RadA K251A, purified without tag (enzyme)”, the stoichiometry N – broadly, a count of units in the complex or per binding partner – in assay [1] came out at 6.

In assay [2], “RadA K101A, purified without tag (enzyme)” registered a stoichiometry N of 6.

“P domain of pneumococcal RadA (RadAP) (domain or fragment)” yielded a stoichiometry N in assay [3] of 6.

Molecule “full-length pneumococcal RadA (RadAFL), preparation for structural analysis (enzyme)” came in with a stoichiometry N in assay [4] of 6.

With “RadA R253A, purified without tag (enzyme)”, in assay [5], the stoichiometry N came to 6.

Regarding `Nc1ncnc2c1ncn2[C@@H]1O[C@H](COP(=O)(O)OP(=O)(O)OP(=O)(O)O)[C@@H](O)[C@H]1O` [ATP], the Km (in general, the substrate concentration at which the rate is half of its maximum) in assay [6] was 150 µM.

Source of the values: PMC5512693, “Bacterial RadA is a DnaB-type helicase interacting with RecA to promote bidirectional D-loop extension” (Nature Communications, 2017).
